Experiment [1] addresses recombinant catalytic domain of human LOX (169-417) (human) (UniProt P28300). Put plainly: ELISA, plate coated with LOX catalytic domain, detection with anti-human peroxidase antibody.
In experiment [2] the target is endogenous HSP70 from the mouse Ret melanoma cell line (mouse) (UniProt Q61696). Put plainly: cell-based or functional assay.
Another experiment has as its target recombinant HSP70 (UniProt P0DMV8). Put plainly: ELISA, plate coated with recombinant HSP70, detection with anti-human peroxidase antibody.

Sequence of recombinant HSP70 (P0DMV8 whole entry): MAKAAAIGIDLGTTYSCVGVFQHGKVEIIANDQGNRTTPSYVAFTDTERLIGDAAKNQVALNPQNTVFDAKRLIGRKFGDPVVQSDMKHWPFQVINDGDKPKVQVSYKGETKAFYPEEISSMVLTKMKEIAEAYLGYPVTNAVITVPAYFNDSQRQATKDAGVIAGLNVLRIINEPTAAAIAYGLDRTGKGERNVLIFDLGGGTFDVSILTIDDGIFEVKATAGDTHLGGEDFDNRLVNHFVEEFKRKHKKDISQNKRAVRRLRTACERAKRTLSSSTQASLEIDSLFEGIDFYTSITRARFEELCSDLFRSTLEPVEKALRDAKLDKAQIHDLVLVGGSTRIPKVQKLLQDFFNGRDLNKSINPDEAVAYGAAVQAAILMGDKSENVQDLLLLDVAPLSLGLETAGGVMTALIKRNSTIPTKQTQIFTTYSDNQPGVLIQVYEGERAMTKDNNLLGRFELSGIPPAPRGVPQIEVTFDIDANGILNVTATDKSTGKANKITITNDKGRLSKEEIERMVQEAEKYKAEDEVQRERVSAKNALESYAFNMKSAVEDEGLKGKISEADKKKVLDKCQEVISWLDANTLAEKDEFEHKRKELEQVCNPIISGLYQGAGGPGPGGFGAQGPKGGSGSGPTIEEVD
Sequence of endogenous HSP70 from the mouse Ret melanoma cell line (mouse) (Q61696 2-641): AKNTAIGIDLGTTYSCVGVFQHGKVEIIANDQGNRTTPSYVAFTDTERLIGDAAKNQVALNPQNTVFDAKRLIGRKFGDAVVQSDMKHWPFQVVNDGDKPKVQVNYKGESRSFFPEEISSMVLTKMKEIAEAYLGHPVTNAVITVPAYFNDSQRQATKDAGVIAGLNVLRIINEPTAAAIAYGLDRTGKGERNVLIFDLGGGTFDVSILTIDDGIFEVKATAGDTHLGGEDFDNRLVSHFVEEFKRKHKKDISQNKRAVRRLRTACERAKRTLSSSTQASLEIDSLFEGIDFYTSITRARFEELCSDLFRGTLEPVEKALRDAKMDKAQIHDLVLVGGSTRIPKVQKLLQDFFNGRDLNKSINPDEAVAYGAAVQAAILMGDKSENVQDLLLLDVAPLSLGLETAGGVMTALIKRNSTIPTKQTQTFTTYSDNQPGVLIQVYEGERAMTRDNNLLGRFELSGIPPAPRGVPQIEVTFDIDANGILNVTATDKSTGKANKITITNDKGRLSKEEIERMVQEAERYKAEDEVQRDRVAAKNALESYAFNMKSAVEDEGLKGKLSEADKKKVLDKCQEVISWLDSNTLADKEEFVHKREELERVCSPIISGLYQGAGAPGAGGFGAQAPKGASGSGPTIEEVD
Sequence of recombinant catalytic domain of human LOX (169-417) (human) (P28300 169-417 limits assumed): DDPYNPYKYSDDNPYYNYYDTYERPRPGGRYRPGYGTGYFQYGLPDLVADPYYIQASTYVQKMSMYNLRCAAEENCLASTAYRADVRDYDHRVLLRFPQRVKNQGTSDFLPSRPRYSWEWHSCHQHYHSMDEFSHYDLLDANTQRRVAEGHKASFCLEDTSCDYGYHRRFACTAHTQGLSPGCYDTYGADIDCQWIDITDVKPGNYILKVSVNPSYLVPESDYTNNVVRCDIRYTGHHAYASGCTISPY

For the substance “AS2 (non-glycosylated LOX-PP fused to human IgG1 Fc) (Fc fusion)”, the EC50 in experiment [1] was 58 nM; with recombinant HSP70, 57 nM. In experiment [2], this substance returned an ATPase activity of HSP70 in the culture media of Ret-melanoma cells (decrease against Fc) of 18%.

Values taken from patent US20240398906A1.
